From patent US20210309735A1 (published 2021)
Substitutions are numbered along the chain they refer to.

T1: human IL-17A (human, UniProt Q16552 20-155, limits assumed)
T1 construct: Bought from R&D Systems; also called IL-17 antigen (human IL17A)
T1 sequence (looked up): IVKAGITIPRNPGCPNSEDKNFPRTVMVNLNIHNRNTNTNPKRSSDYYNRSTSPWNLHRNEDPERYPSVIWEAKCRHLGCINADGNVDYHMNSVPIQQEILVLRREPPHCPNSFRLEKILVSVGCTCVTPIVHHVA

T2: mouse IL-17A (mouse, UniProt Q62386 26-158, limits assumed)
T2 sequence (looked up): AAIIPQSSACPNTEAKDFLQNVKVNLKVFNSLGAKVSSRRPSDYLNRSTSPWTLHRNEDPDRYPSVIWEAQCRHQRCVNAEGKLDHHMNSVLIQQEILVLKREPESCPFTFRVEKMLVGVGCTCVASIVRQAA

B1: PP10761 (antibody, human IgG4 S228P, kappa, V domains shown)
VH: EVQLVESGGGLVQPGGSLRLSCAASGFTFSTYGMSWVRQAPGKGLELVSIINHNGGSTFYPDSVKGRFTISRDNSKNTLYLQMNSLRAEDTAVYYCARDPRHDGYFFDYWGQGTLVTVSS
VL: DIQMTQSPSSLSASVGDRVTITCQASEDIYDRLAWYQQKPGKAPKLLISGATSLETGVPSRFSGSGSGKDYTFTISSLQPEDIATYYCQQYWSVPWTFGGGTKVEIKR
notes: Humanized, human IgG4/kappa; also called VH6665/VL6666
B2: PP10764 (antibody, human IgG4 S228P, kappa, V domains shown)
VH: B1 VH with S49A, I70V
VL: B1 VL
notes: Humanized, human IgG4/kappa; also called VH6666/VL6666
B3: PP10765 (antibody, human IgG4 S228P, kappa, V domains shown)
VH: B1 VH with S49A, I70V
VL: B1 VL with Q24R, K45N, I48V, T56S, F73L, I83F
notes: Humanized, human IgG4/kappa; also called VH6666/VL6667
B4: PP10766 (antibody, human IgG4 S228P, kappa, V domains shown)
VH: B1 VH with L11V, G16R, S49A
VL: B1 VL with K69T
notes: Humanized, human IgG4/kappa; also called VH6667/VL6665
B5: PP10768 (antibody, human IgG4 S228P, kappa, V domains shown)
VH: B1 VH with L11V, G16R, S49A
VL: B1 VL with Q24R, K45N, I48V, T56S, F73L, I83F
notes: Humanized, human IgG4/kappa; also called VH6667/VL6667
B6: PP10763 (antibody, human IgG4 S228P, kappa, V domains shown)
VH: B1 VH with S49A, I70V
VL: B1 VL with K69T
notes: Humanized, human IgG4/kappa; also called VH6666/VL6665
B7: PP10760 (antibody, human IgG4 S228P, kappa, V domains shown)
VH: B1 VH
VL: B1 VL with K69T
notes: Humanized, human IgG4/kappa; also called VH6665/VL6665
B8: PP10762 (antibody, human IgG4 S228P, kappa, V domains shown)
VH: B1 VH
VL: B1 VL with Q24R, K45N, I48V, T56S, F73L, I83F
notes: Humanized, human IgG4/kappa; also called VH6665/VL6667
B9: PP10767 (antibody, human IgG4 S228P, kappa, V domains shown)
VH: B1 VH with L11V, G16R, S49A
VL: B1 VL
notes: Humanized, human IgG4/kappa; also called VH6667/VL6666
B10: PP10759 (antibody, human IgG4 S228P, kappa, V domains shown)
VH: EVQLVESGGGLVQPGGSLKLSCVASGFTFSTYGMSWVRQTPDKRLELVAIINHNGGSTFYPDSVKGRFTVSRDNAKNTLHLQMSSLKSEDTAMYYCARDPRHDGYFFDYWGQGTTLTVSS
VL: DIQMTQSSPSFSVSLGDRVTITCKASEDIYDRLAWYQQKPGNAPRLLISGATSLETGIPSRFSGSRSGKDYTLDINSLQTEDAATYYCQQYWSVPWTFGGGTKLEIKR
notes: expressed in HEK293; also called chimeric antibody PP10759; chimeric parental antibody

What was measured:
human IL-17A [1] = target: T1, human IL-17A; experiment: blocking ELISA, IL-17RC coated; control IgG pre-mixed with human IL-17A 0.1 ug/ml; bound IL-17A detected
human IL-17A [2] = target: T1, human IL-17A; experiment: blocking ELISA, IL-17RA coated; control IgG pre-mixed with human IL-17A 0.1 ug/ml; bound IL-17A detected (unblocked signal)
human IL-17A [3] = target: T1, human IL-17A; experiment: blocking ELISA, IL-17RA coated; control IgG pre-mixed with human IL-17A 0.1 ug/ml; bound IL-17A detected
human IL-17A [4] = target: T1, human IL-17A; experiment: blocking ELISA, IL-17RC coated; control IgG pre-mixed with human IL-17A 0.1 ug/ml; bound IL-17A detected (unblocked signal)
human IL-17A [5] = target: T1, human IL-17A; experiment: ELISA, human IL-17A coated at 1 ug/mL, anti-human IgG-HRP detection
Experimental: ELISA plates were coated with 1 μg/mL IL-17 antigen (human IL17A) (R&D Systems) and incubated at 4° C. in the dark overnight. Then it was washed once with 10 mM, pH 7.4 PBS/Tween (0.05%), blocked with PBST containing 2% BSA for 1 hour and incubated at room temperature for 1 h. The antibodies PP10759-PP10768 were diluted in 5-fold increments for a total of eleven data points and were added to the ELISA wells and incubated at room temperature for 1 hour. The plate was washed with PBS for three times, and then incubated with HRP conjugated goat anti-human IgG antibody for 1 hour. The plate was washed three times with PBS. TMB, the HRP substrate, was added to each well for color development for 5 minutes at room temperature. Equal amount of 0.1N HCl stop solution was added to each well to terminate the reaction. Raw OD₄₅₀ data was collected by POLARstar Omega (BMG Labtech). Besides, hFc isotope was regarded as control. It can be seen that the antibodies (i.e. PP10759-PP10768) bind to human IL-17A with high affinity.

mouse IL-17A = target: T2, mouse IL-17A; experiment: ELISA, mouse IL-17A coated
human IL-17A [6] = target: T1, human IL-17A; experiment: BLI (Octet Red96), antibody captured on AHC biosensor, human IL-17A in solution, 1:1 model, 25 C
Experimental: Using the Octet method (Fortebio Octet®), the chimeric parental antibody and the […] (i.e. PP10759-PP10768) were evaluated with Octet Red96 at 25° C. These antibodies were captured on anti-Human Fc (AHC) biosensors at a concentration of 10 μg/mL. Loaded biosensors were then dipped into a dilution of antigen (human IL-17A (R&D Systems), 500 nM start, 1:3 down, 7 points). Kinetic constants were calculated using a monovalent (1:1) model. In FIG. 2A, Figure I, II, III and IV show the results of PP10759, PP10760, PP10761 and PP10762, respectively. In FIG. 2B, Figure I, II, III and IV show the results of PP10763, PP10764, PP10765 and PP10766, respectively. In FIG. 2B, Figure I and II show the results of PP10767 and PP10768, respectively. It can be seen that the antibodies (i.e. PP10759-PP10768) bind to IL-17A with high affinity. […] Secukinuma is a human IgG1κ monoclonal antibody that binds to IL-17A made by Novartis.

human IL-17A [7] = target: T1, human IL-17A; experiment: blocking ELISA, IL-17RA coated; antibody 1 ug/ml pre-mixed with human IL-17A 0.1 ug/ml; bound IL-17A detected
Experimental: (§1) Recombinant human IL-17RA or recombinant human IL-17RC (1 μg/ml) were coated on the plate, overnight at 4° C. in the dark and then blocked with 2% BSA for 1 hour at room temperature to reduce non-specific binding. The antibodies PP10759-PP10768 (1 μg/ml) pre-mixed with human IL-17A (0.1 μg/ml final concentration) were added to the ELISA wells for 1 hour at room temperature. The plate was washed with PBS for three times, and then incubated with anti-IL17A polyclonal Ab-biotin (R&D Systems) for 1 hour followed by SAV-HRP. The plate was washed for three times with PBS. TMB, the HRP substrate, was added to each well for color development for 5 minutes at room temperature. Equal amount of 0.1N HCl stop solution was added to each well to terminate the reaction. Raw OD₄₅₀ data was collected by POLARstar Omega from BMG Labtech.
(§2) It can be seen that the antibodies PP10759-PP10768 can effectively block the interaction between IL-17A and IL-17RA as well as IL-17A and IL-17RC.

human IL-17A [8] = target: T1, human IL-17A; experiment: blocking ELISA, IL-17RC coated; antibody 1 ug/ml pre-mixed with human IL-17A 0.1 ug/ml; bound IL-17A detected
Experimental: as §1, §2

Row | Molecule | Blocking % (human IL-17A [1]) [%] | OD450 (human IL-17A [2]) [OD450] | Blocking % (human IL-17A [3]) [%] | OD450 (human IL-17A [4]) [OD450] | EC50 (human IL-17A [5]) [ng/mL] | binding result (mouse IL-17A) | Kd (human IL-17A [6]) [nM] | koff (human IL-17A [6]) [s⁻¹] | kon (human IL-17A [6]) [M⁻¹ s⁻¹] | Blocking % (human IL-17A [7]) [%] | OD450 (human IL-17A [7]) [OD450] | Blocking % (human IL-17A [8]) [%] | OD450 (human IL-17A [8]) [OD450]
1 | Normal human IgG (antibody) | 0 | 1.39 | 0 | 0.487 | – | – | – | – | – | – | – | – | –
2 | B1 | – | – | – | – | 8.72 | no binding | < 0.001 | < 1e-07 | 400000 | 99.7 | 0.0851 | 99.8 | 0.0688
3 | B2 | – | – | – | – | 6.61 | no binding | < 0.001 | < 1e-07 | 450000 | 96.5 | 0.126 | 98.9 | 0.0725
4 | B3 | – | – | – | – | 7.61 | no binding | 0.13 | 6.6e-05 | 500000 | 89.9 | 0.213 | 95.2 | 0.088
5 | B4 | – | – | – | – | 7.35 | no binding | < 0.001 | < 1e-07 | 350000 | 94.9 | 0.147 | 100 | 0.0682
6 | B5 | – | – | – | – | 7.67 | no binding | < 0.001 | < 1e-07 | 370000 | 99.5 | 0.0869 | 99.9 | 0.0685
7 | B6 | – | – | – | – | 7.28 | no binding | 0.36 | 0.00016 | 460000 | 90.9 | 0.104 | 98.9 | 0.0721
8 | B7 | – | – | – | – | 9.44 | no binding | 0.31 | 0.00015 | 490000 | 97.8 | 0.109 | 98 | 0.0762
9 | B8 | – | – | – | – | 8.26 | no binding | < 0.001 | < 1e-07 | 440000 | 99.6 | 0.0846 | 99.5 | 0.0701
10 | B9 | – | – | – | – | 7.71 | no binding | < 0.001 | < 1e-07 | 360000 | 98.1 | 0.105 | 99.9 | 0.0684
11 | B10 | – | – | – | – | 5.83 | no binding | 1.1 | 0.00053 | 480000 | 99.5 | 0.0872 | 95.2 | 0.0888
